Like-named read-outs stand apart in the source and are kept apart here. A value given as a limit tells only on which side of the number the result lay.

Broadly, the Ki is the dissociation constant of the complex between target and ligand, obtained from inhibition or displacement. Low readings indicate a stronger hold on the target, high ones a looser hold on the target.

In test [1] the target is LSD1_(172-833), lysine-specific demethylase 1 (human) (UniProt O60341).
The target is the same in test [2]. Nature of the test: enzyme inhibition kinetics (HRP-coupled fluorescence demethylation assay); 25 nM LSD1, substrate H3K4me1_(1-21), 25 mM Tris, 50 mM NaCl, 0.1 mg/mL BSA, pH 8, 1% DMSO; Ki by global fit of competitive inhibition for 1, 11, 24, 28, 31, 33, 34, else from IC50 by Cheng-Prusoff (substrate 20 μM).
Test [3] has the same target. This is another data set of the same source.

As to “lactam 27 (Lys3-Glu6 lactam-bridged H3_(1-11) K4M) (peptide)”, in test [1], the % inhibition of LSD1 demethylase activity at 100 μM peptide was 65%. In test [2], the inhibition constant Ki was 31 µM.
Consider “lactam 28 (Glu3-Lys6 lactam-bridged H3_(1-11) K4M) (peptide)”, for which, in test [1], the % inhibition of LSD1 demethylase activity at 100 μM peptide was 98%. The same substance yielded a Ki in test [2] of 4 µM.
The substance “lactam 29 (A1P-substituted lactam 27) (peptide)” registered a % inhibition of LSD1 demethylase activity at 100 μM peptide in test [1] of 90%. The substance further gave a Ki in test [2] of 7 µM.
In test [1], “lactam 30 (A1P-substituted lactam 28) (peptide)” displayed a % inhibition of LSD1 demethylase activity at 100 μM peptide of 75%. The substance also yielded a Ki in test [2] of 22 µM.
Regarding “lactam 32 (D-Glu3-Lys6 lactam-bridged H3_(1-11) K4M) (peptide)”, the % inhibition of LSD1 demethylase activity at 100 μM peptide in test [1] was < 20%. For the same substance, the Ki in test [2] is > 100 µM.
For “macrocycle 31 (D-Lys3-Glu6 lactam-bridged H3_(1-11) K4M) (peptide)”, in test [1], the % inhibition of LSD1 demethylase activity at 100 μM peptide amounted to 100%. The same substance yielded a Ki in test [2] of 2.3 µM.
In the case of “peptide 20, linear precursor of 21 (allylglycine at positions 3 and 6 of H3_(1-11) K4M)”, in test [3], the % inhibition of LSD1 demethylase activity at 100 μM peptide is 95% and the IC50 of inhibition of LSD1 demethylase activity is 10 µM.
